Where two headings read alike, the source gives them in different places.
B1: ALK48 monoclonal antibody (antibody, IgG2a, V domains shown)
VH: QVQLQQSGAELVKPGASVKISCKASGYAFSSYWMNWVKQRPGKGLEWIGQIYPGDGDTTYNGKFKGKATLTADKSSSTVYMQLNSLTSEDSAVYFCVRYYYGSSGYFDYWGQGTTLTVSS
VL: DVQMIQTPDSLAVSLGQRATISCRASESVDNYGISFMHWYQQKPGQSPKLLIYRASNLESGIPARFSGSGSRTDFTLTINPVETDDVATYYCQQNNKDPPTFGGGTKLEIK
notes: Murine hybridoma antibody; also called ALK48B; ALK MAb 48
B2: ALK48B: anti-ALK monoclonal antibody, IgG2a; VH SEQ ID NO: 3, VL SEQ ID NO: 4 (antibody, V domains shown)
VH: B1 VH
VL: B1 VL
modifications: Antibody variable domain sequence
B3: ALK48: CAR construct, long format: SP-murine ALK48 scFv-CH2CH3 spacer; signaling domains not stated for the in vitro tests (antibody, V domains shown)
VH: B1 VH
VL: B1 VL
B4: ALK15A: anti-ALK monoclonal antibody, IgG2b; VH SEQ ID NO: 1, VL SEQ ID NO: 2 (antibody, V domains shown)
VH: DVKLQESGPGLVAPSQSLSITCTVSGFSLTSYAVSWVRQPPGKGLEWLGIIWSGGATNYNSALKSRLSISKDNSKSQVFLKMNGLQTDDTARYYCAREHYYGSSAMDYWGQGASITVSS
VL: GIVMTQSPLSLPVSLGDQASISCRSSQSIVHSYGNTYLFWYLQKPGQSPKLLIYRVSNRFSGVPDRFSGSGSGTNFTLKISRVEAEDMGVYYCFQGTHVPYTFGGGTKLEIK
modifications: Antibody variable domain sequence
B5: ALK48SH-28z: CAR, SEQ ID NO: 50; murine ALK48 scFv, no spacer (short form), 28z (protein)
chain: LLVTSLLLCELPHPAFLLIPDTQVQLQQSGAELVKPGASVKISCKASGYAFSSYWMNWVKQRPGKGLEWIGQIYPGDGDTTYNGKFKGKATLTADKSSSTVYMQLNSLTSEDSAVYFCVRYYYGSSGYFDYWGQGTTLTVSSGGGGSGGGGSGGGGSDVQMIQTPDSLAVSLGQRATISCRASESVDNYGISFMHWYQQKPGQSPKLLIYRASNLESGIPARFSGSGSRTDFTLTINPVETDDVATYYCQQNNKDPPTFGGGTKLEIKRAAAIEVMYPPPYLDNEKSNGTIIHVKGKHLCPSPLFPGPSKPFWVLVVVGGVLACYSLLVTVAFIIFWVRSKRSRLLHSDYMNMTPRRPGPTRKHYQPYAPPRDFAAYRSRVKFSRSADAPAYQQGQNQLYNELNLGRREEYDVLDKRRGRDPEMGGKPRRKNPQEGLYNELQKDKMAEAYSEIGMKGERRRGKGHDGLYQGLSTATKDTYDALHMQALPPR
modifications: chimeric antigen receptor sequence
notes: murine ALK48 scFv, no spacer (short form), 28z
B6: ALK53 monoclonal antibody (antibody, V domains shown)
VH: DVQLQESGPVLVKTGASVKMSCTASGYTFTDHFMDWVKQSHGKSLEWIGSLNPYSGGTSYNQKFKGKATLTVDKSSSTAYMELNSLTSVDSAVYYCARHNWGAYFDYWGQGTTLTVSS
VL: DIVMTQAAPSVPVTPGESVSISCRSSKSLLHSNGNTYLYWFLQRPGQSPQRLIYYMSNLASGVPDRFSGRGSGTDFTLRISRVEAEDVGVYYCMQGLEDPYTFGGGTKLEIK
notes: Murine hybridoma antibody; also called ALK53A; ALK MAb 53
B7: ALK53A: anti-ALK monoclonal antibody; VH SEQ ID NO: 5, VL SEQ ID NO: 6 (antibody, V domains shown)
VH: B6 VH
VL: B6 VL
modifications: Antibody variable domain sequence
B8: ALK58 monoclonal antibody (antibody, V domains shown)
VH: ALQLQQSGAELVRPGASVTLSCKASGYTFTDYEMHWVKQTPVHGLEWIGAIDPETGGTAYNQKFEGKAILTADKSSSTAYMELRSLTSEDSPVYYCARRRYYGSSSFDYWGQGTTLTVSS
VL: DVQMIQTPSSLSASLGDRVTISCRASQDIGNYLNWYQQKPDGTVKLLIYYTSRLHSGVPSRFSGSGSGTEYSLTISNLEQEDIATYFCQQGSALPPTFGGGTKLEIN
notes: Murine hybridoma antibody; also called ALK58A; ALK MAb 58
B9: ALK58A: anti-ALK monoclonal antibody; VH SEQ ID NO: 7, VL SEQ ID NO: 8 (antibody, V domains shown)
VH: B8 VH
VL: B8 VL
modifications: Antibody variable domain sequence

How the values were obtained:
[1] = biological target: T1, human anaplastic lymphoma kinase (ALK) protein (human, UniProt Q9UM73 19-1620); experiment: flow cytometry on tumor cell lines expressing ALK
T1 construct: Endogenous ALK on tumor cell lines (SY5Y, LAN5, KCNR, IMR32, Rh18); also called CD246; cell surface ALK
T1 sequence (Q9UM73 19-1620 limits assumed): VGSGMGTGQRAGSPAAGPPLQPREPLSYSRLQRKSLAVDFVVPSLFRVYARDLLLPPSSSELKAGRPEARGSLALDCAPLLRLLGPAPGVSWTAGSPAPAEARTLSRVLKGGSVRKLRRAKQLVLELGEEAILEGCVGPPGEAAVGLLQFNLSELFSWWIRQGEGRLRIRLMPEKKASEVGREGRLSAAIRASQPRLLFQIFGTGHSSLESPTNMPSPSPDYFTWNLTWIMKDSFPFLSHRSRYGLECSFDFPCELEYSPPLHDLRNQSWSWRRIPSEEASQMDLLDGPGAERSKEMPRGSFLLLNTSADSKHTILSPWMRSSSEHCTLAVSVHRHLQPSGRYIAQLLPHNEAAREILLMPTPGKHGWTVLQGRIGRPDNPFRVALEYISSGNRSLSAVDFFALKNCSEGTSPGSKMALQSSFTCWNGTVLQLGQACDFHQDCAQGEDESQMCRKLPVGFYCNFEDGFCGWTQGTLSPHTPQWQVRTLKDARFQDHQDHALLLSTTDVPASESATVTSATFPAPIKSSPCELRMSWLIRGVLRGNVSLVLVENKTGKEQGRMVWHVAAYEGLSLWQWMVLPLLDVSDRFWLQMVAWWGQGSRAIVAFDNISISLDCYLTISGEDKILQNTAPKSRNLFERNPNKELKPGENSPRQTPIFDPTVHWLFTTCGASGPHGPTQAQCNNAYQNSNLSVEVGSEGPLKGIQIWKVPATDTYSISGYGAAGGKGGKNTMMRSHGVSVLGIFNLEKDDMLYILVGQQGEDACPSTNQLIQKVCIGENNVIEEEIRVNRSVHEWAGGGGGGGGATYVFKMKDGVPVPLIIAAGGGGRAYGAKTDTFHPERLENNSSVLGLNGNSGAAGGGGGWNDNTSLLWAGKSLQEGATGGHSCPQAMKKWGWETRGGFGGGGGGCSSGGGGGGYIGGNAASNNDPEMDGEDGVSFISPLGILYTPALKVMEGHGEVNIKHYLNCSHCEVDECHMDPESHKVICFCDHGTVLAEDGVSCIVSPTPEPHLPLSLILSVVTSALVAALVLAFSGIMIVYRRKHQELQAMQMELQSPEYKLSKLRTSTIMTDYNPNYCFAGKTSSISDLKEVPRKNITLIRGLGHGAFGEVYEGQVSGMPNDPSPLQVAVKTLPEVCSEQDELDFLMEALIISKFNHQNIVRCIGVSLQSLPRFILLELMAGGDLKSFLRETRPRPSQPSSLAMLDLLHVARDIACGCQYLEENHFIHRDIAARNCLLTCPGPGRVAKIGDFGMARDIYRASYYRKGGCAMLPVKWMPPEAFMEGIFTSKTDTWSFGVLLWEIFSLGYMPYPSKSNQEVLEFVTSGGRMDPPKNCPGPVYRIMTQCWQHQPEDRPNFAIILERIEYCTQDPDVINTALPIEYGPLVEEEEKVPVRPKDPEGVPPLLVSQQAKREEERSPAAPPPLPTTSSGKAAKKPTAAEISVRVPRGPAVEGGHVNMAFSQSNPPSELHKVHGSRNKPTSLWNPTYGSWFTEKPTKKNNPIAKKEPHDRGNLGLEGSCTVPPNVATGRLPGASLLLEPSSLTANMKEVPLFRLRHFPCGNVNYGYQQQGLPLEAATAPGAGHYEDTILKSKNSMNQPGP
Experimental: Cell lines used in these studies were: Sy5Y, LAN5, K562, Rh18, IMR32, KCNR. Cells were cultured in RPMI-1640 supplemented with 2 mM lgln, 10 mM HEPES, Pen/Strep, (Gibco, Life Technologies, Grand Island, N.Y.) and 10% FBS (Omega Scientific, Tarzana, Calif.). Anti-ALK antibodies were produced as described previously: ALK15A (IgG2b, weak agonist, membrane proximal binding), ALK48B (IgG2a, agonist, membrane proximal binding), ALK53A, ALK58A (binds to a membrane distal epitope) (Mazot et al., Oncogene, 30, 2017-2025, 2011; Moog-Lutz et al., J Biol. Chem., 280, 26039-26048, 2005). Staining for ALK expression on tumor lines was performed as follows: 2.5 μL primary antibody (1 mg/ml conc.) per 1 million cells was added to cells on ice in FACS buffer, FB, (PBS, 0.5% BSA, 0.02% NaN3) for 20 minutes, cells were washed twice, then stained with 5 μL FITC-F(ab′)2 Fragment Goat Anti-Mouse IgG+IgM (H+L) secondary antibody (Jackson ImmunoResearch, 1 mg/ml) for 20 minutes, washed, then analyzed by flow cytometry.
As reported previously, ALK MAbs 7, 48, 53, and 58 were able to detected ALK expression on tumor cell lines by flow cytometry. The ALK-specific MAb was used to define the expression of ALK on a series of neuroblastoma call lines, and a rhabdomyosarcoma cell line. FIG. 1 illustrates that the neuroblastoma cell lines SY5Y, LAN5, KCNR, IMR32, all express cell surface ALK, as does the rhabdomyosarcoma cell line Rh18. The differences in expression were quite varied with the SY5Y staining the brightest for ALK expression. This was true when the other MAbs specific for ALK were tested as well.

[2] = system: ALK; settings: cited from earlier work
Target sequence in this assay (Q9UM73 19-1620): as the sequence (Q9UM73 19-1620 limits assumed) above

[3] = system: ALK; settings: flow cytometry; as reported previously; cited from earlier work
Target sequence in this assay (Q9UM73 19-1038 limits assumed): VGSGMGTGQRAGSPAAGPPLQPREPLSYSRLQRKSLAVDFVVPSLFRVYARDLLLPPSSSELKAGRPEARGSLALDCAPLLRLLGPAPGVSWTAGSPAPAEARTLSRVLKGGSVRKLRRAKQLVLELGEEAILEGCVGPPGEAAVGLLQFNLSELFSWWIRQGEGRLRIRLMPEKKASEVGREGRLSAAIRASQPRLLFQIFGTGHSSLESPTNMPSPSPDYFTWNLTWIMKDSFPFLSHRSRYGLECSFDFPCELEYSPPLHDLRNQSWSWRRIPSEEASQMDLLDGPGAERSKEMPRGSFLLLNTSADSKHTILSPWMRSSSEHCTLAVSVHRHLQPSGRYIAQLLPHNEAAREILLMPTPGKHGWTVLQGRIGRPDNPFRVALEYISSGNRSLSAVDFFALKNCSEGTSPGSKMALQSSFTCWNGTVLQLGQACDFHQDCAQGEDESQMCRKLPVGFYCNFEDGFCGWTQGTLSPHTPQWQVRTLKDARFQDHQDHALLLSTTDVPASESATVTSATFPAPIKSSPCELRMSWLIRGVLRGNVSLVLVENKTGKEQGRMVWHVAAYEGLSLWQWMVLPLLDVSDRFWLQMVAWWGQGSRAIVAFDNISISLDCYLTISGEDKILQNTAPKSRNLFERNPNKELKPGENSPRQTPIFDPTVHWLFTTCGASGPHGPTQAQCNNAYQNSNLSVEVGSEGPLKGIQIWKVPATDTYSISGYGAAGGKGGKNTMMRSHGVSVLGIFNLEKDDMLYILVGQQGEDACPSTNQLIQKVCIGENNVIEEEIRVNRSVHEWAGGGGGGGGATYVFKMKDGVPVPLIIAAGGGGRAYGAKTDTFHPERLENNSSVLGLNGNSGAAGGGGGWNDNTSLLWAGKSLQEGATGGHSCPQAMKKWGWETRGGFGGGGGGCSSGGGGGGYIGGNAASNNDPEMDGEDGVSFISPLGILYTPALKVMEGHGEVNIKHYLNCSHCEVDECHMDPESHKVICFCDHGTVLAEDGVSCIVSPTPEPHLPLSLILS

[4] = biological target: T2, extracellular domain of ALK (Homo sapiens, UniProt Q9UM73); settings: cited from earlier work
T2 construct: monoclonal antibodies (mAb) against the extracellular domain of ALK
T2 sequence (Q9UM73 19-1038 limits assumed): as above

[5] = system: tumor cell lines (LAN5 SY5Y, Rh18, K562); experiment: Cytokine release on co-culture of CAR T cells with tumor cell lines; assay type: cell-based; settings: 24-hour co-culture with tumor cell lines; FIG. 6
Experimental: FIGS. 6A-6C show a series of graphs illustrating cytokine activity of the disclosed CAR T Cells. PBMC were transduced with the indicated CAR constructs, and incubated with tumor targets (LAN5 SY5Y, Rh18, K562 as indicated in legend), and supernatants collected after 24 hours and tested for the presence of cytokine by a MesoScale mutli-analyte detection system. […] Controls include mock transduced cells, tumor only, and T cells without tumor target, as indicated.
T cell cytolytic function was assayed in standard 51Cr release assays as described elsewhere (Haso et al., (2013) Blood, 121, 1165-1174). Cytokine release was assayed by co-incubating 25,000 T cells with 25,000 tumor cell targets in cRPMI. At 24 hours culture media was collected and cytokines measured (Human TH1/TH2 multiplex, Meso Scale Discovery, Rockville, Md.).

[6] = system: ALK+ human neuroblastoma cells (SY5Y cells); experiment: SY5Y neuroblastoma xenograft assay; assay type: in vivo; settings: transduced T cells given on day 13, no treatment on day 6
Experimental: NSG mice were injected s.c. on day 0 with 5×10^6 human neuroblastoma cells (SY5Y in vivo passaged and re-cultured as a new line, SY5Y.P1). On day 6, 5.1×10^6 ALK48-28z CAR(+)ve T cells were injected r.o. (34% positive/15 million total). CAR-treated mice were given a cocktail of (0.9 μg IL-7+6.6 μg M25 anti-IL7 mAb) i.p. every 2-3 days, for the time period indicated above. Survival statistics were calculated using Log-rank (Mantel-Cox) analysis (Prism Software, Inc.). On day 13, 3.2×10^6 ALK48SH-trasnduced T cells were given. The experiment was ended on day 64 due to graft vs host disease-like symptoms, standardly encountered in the NSG model system.
NOD scid gamma (NSG) mice were inoculated with ALK+ human neuroblastoma cells (SY5Y cells). On day 6, the mice were treated with human T cells transduced to express the murine ALK specific ALK48-28z CAR (SEQ ID NO: 49, long form CAR with CH2CH3 spacer domain) or mock treated T cells. […] In a separate set of mice, on day 13 post inoculation (and without any treatment on day 6), the mice were treated with ALK48SH-28z (SEQ ID NO: 50, short form CAR without spacer domain) transduced T cells.
The mice also received biweekly injections of IL-7 complexed to anti-IL7 antibody to promote T cell persistence. […] The other two groups all died of tumor.

| Molecule | binding result [1] | agonist activity on ALK [2] | detection of ALK expression on tumor cell lines [3] | location of epitope on ALK [4] | further results |
| --- | --- | --- | --- | --- | --- |
| B1 | binds |  |  |  |  |
| B2 |  | agonist | able to detected ALK expression | membrane proximal binding | phosphorylation of the receptor upon binding [2]: induce phosphorylation; agonist activity on ALK ([2]; listed as mAb 48): activating; form of ALK bound (220 kD / 140 kDa cleaved) [4]: both; location of epitope on ALK ([4]; listed as clone 48): closer to the cell surface membrane |
| B3 |  |  |  |  | IFN-gamma production [5]: Strong; IL-2 production [5]: lower levels; TNF-alpha production [5]: lower levels |
| B4 |  | weak agonist |  | membrane proximal binding |  |
| B5 |  |  |  |  | effect on survival [6]: no effect on survival |
| B6 | binds |  |  |  |  |
| B7 |  |  | able to detected ALK expression |  |  |
| B8 | binds |  |  |  |  |
| B9 |  | activating | able to detected ALK expression | membrane distal epitope | phosphorylation of the receptor upon binding [2]: induce phosphorylation; form of ALK bound (220 kD / 140 kDa cleaved) [4]: only the 220 KDa form; location of epitope on ALK ([4]; listed as clone 58): more distal cleaved region |

Source: patent US20160280798A1, “ALK ANTIBODIES, CONJUGATES, AND CHIMERIC ANTIGEN RECEPTORS, AND THEIR USE” (The United States of America, as Represented by the …, priority 2013, published 2016)
